Assay results published in publication PMC10375638.
Where two headings read alike, the source gives them in different places.

Legend:
[1] = molecular target: APETALA3 (AP3) fused to mVenus, expressed in N. benthamiana (Arabidopsis thaliana) (UniProt P35632); test: FRET or BRET; FLIM-FRET with one pattern analysis (OPA) in nuclei of transiently expressing N. benthamiana leaf epidermis cells; donor mVenus fusion, acceptor mCherry fusion; BINDING = relative amplitude of the FRET fraction; nucleoli excluded; FRET efficiency only for nuclei with BINDING above 10%
[2] = molecular target: APETALA1 (AP1) fused to mVenus, expressed in N. benthamiana (Arabidopsis thaliana) (UniProt P35631); test: as above
[3] = molecular target: … (PI) fused to mVenus, expressed in N. benthamiana (Arabidopsis thaliana) (UniProt P48007); test: as above
[4] = molecular target: APETALA1 (AP1) fused to mVenus, expressed in N. benthamiana (Arabidopsis thaliana) (UniProt P35631); test: as above; remark: listed apart in the source
[5] = molecular target: APETALA1 (AP1) fused to mVenus, expressed in N. benthamiana (Arabidopsis thaliana) (UniProt P35631); test: as above; remark: listed apart in the source
[6] = molecular target: AP1-mV reporter in Arabidopsis flowers (Arabidopsis thaliana) (UniProt P35631); test: FRET or BRET; FLIM-FRET (OPA) in young flowers of stable A. thaliana lines; donor AP1-mV, acceptor AP1-mCh or PI-mCh, endogenous promoters, F1 plants; only nuclei with donor and acceptor

Chain of … (PI) fused to mVenus, expressed in N. benthamiana (Arabidopsis thaliana) (P48007 whole entry, the tested form may be a part): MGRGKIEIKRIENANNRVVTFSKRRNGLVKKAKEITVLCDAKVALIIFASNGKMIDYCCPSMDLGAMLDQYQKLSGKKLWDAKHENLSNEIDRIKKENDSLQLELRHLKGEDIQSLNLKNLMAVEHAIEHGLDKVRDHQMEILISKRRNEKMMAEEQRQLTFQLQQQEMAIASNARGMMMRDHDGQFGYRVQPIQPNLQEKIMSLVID
Chain of APETALA1 (AP1) fused to mVenus, expressed in N. benthamiana, P35631 1-256 (natural protein; other documents disagree on this pair) (P35631 whole entry, the tested form may be a part): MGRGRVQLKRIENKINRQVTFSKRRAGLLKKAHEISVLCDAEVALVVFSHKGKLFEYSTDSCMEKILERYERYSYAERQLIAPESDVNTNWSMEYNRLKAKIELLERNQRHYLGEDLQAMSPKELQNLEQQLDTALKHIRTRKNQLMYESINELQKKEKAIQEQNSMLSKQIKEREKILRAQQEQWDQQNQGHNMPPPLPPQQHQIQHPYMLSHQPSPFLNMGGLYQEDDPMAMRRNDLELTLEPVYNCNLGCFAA
Chain of APETALA3 (AP3) fused to mVenus, expressed in N. benthamiana (Arabidopsis thaliana) (P35632 whole entry, the tested form may be a part): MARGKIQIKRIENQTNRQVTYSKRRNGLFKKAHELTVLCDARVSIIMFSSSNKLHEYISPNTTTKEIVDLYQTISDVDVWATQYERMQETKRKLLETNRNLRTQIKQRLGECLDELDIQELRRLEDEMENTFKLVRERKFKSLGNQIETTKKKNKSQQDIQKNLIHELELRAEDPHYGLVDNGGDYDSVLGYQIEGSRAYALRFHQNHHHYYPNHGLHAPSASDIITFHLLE
Chain of APETALA1 (AP1) fused to mVenus, expressed in N. benthamiana (Arabidopsis thaliana) (P35631 whole entry, the tested form may be a part): as the sequence (P35631 whole entry, the tested form may be a part) above
Chain of AP1-mV reporter in Arabidopsis flowers, P35631 1-256 (natural protein; other documents disagree on this pair) (P35631 whole entry): as the sequence (P35631 whole entry, the tested form may be a part) above

| BINDING [1] | FRET efficiency [1] | BINDING [2] | FRET efficiency [2] | BINDING [3] | FRET efficiency [3] | Substance | further results |
| --- | --- | --- | --- | --- | --- | --- | --- |
| 35.2% | 38% | – | – | – | – | … (PI) fused to mCherry, expressed in N. benthamiana (from UniProt P48007 1-208) (natural protein) | – |
| – | – | 36.1% | 42.6% | – | – | …3 (SEP3) fused to mCherry, expressed in N. benthamiana (from UniProt O22456 1-251) (natural protein) | – |
| – | – | – | – | 36% | 38% | APETALA3 (AP3) fused to mCherry, expressed in N. benthamiana (from UniProt P35632 1-232) (natural protein) | – |
| – | – | 29.9% | 39% | – | – | APETALA1 (AP1) fused to mVenus, expressed in N. benthamiana, P35631 1-256 (natural protein; other documents disagree on this pair) | BINDING [4]: 19.2%; FRET efficiency [5]: 40% |
| – | – | – | – | – | – | AP1-mV reporter in Arabidopsis flowers, P35631 1-256 (natural protein; other documents disagree on this pair) | BINDING [6]: 8.59%; FRET efficiency [6]: 56.7% |
| 16.5% | 43.6% | – | – | 16.1% | 41.5% | APETALA1 (AP1) fused to mCherry, expressed in N. benthamiana (from UniProt P35631 1-256) (natural protein) | – |
